# Source: article PMC2150586 (The Journal of Cell Biology, 1999)
# T1: MBPFar1 (Far1p residues 133–831 fused to maltose binding protein) (S. cerevisiae, UniProt P21268 133-830)
# T1 sequence: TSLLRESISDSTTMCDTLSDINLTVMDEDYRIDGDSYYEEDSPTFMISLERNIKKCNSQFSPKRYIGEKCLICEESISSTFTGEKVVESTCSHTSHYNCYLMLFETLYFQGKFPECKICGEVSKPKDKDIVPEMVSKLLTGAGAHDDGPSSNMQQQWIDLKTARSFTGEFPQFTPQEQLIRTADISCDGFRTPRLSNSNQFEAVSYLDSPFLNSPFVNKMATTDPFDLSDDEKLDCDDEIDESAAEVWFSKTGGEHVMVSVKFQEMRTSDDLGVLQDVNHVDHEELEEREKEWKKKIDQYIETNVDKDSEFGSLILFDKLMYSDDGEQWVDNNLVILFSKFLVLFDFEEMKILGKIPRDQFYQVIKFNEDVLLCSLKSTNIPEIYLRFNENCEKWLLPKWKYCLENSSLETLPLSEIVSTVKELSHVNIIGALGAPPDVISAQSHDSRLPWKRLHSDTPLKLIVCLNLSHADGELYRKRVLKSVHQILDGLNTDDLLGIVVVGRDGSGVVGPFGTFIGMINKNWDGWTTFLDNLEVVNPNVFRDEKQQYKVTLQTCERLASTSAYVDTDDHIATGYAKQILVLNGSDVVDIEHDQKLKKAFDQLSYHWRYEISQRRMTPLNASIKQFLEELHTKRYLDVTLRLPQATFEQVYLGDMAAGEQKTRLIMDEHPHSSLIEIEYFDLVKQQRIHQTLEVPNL
# T2: Cdc24p fused to the GAL4 DNA binding domain (pAS1Cdc24) (S. cerevisiae, UniProt P11433 1-854)
# T2 sequence: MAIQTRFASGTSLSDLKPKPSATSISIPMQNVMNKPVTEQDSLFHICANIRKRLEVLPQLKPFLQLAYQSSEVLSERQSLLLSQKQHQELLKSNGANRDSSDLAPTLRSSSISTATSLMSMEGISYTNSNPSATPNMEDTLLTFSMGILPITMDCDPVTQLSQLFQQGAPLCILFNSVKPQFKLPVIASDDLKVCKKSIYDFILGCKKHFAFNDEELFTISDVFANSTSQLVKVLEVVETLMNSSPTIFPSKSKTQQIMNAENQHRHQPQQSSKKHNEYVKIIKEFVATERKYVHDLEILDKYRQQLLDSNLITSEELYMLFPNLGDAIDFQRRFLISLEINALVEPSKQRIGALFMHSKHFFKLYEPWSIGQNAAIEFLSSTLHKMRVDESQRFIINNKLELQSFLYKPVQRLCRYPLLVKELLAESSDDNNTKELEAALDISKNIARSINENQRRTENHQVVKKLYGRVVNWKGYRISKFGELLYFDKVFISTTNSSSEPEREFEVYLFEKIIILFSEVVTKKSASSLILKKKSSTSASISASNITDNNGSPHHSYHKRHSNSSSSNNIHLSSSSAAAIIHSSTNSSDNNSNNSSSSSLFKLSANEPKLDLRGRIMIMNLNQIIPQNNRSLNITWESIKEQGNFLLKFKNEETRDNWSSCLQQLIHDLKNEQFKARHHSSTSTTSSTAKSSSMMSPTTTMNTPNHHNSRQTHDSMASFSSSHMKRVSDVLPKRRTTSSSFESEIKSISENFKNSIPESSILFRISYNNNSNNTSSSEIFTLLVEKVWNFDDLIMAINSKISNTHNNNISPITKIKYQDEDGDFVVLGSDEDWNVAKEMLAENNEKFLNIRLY
# Key:
# [1] = target: T1, MBPFar1 (Far1p residues 133–831 fused …); experiment: […]
# [2] = target: T2, Cdc24p fused to the GAL4 DNA binding …; experiment: two-hybrid
binding result [1],fold increase in LacZ activity with Gγ overexpressed [2] [fold],further fold increase in LacZ activity with Far1p also overexpressed [2] [fold],Binder
binds,–,–,GSTCdc24 (NH2-terminal 472 amino acids of Cdc24p fused to GST) (domain or fragment) MAIQTRFASGTSLSDLKPKPSATSISIPMQNVMNKPVTEQDSLFHICANIRKRLEVLPQLKPFLQLAYQSSEVLSERQSLLLSQKQHQELLKSNGANRDSSDLAPTLRSSSISTATSLMSMEGISYTNSNPSATPNMEDTLLTFSMGILPITMDCDPVTQLSQLFQQGAPLCILFNSVKPQFKLPVIASDDLKVCKKSIYDFILGCKKHFAFNDEELFTISDVFANSTSQLVKVLEVVETLMNSSPTIFPSKSKTQQIMNAENQHRHQPQQSSKKHNEYVKIIKEFVATERKYVHDLEILDKYRQQLLDSNLITSEELYMLFPNLGDAIDFQRRFLISLEINALVEPSKQRIGALFMHSKHFFKLYEPWSIGQNAAIEFLSSTLHKMRVDESQRFIINNKLELQSFLYKPVQRLCRYPLLVKELLAESSDDNNTKELEAALDISKNIARSINENQRRTENHQVVKKLYGRVV
–,~2,~3.5,Ste4p (Gβ) fused to the GAL4 activation domain (pGAD424Ste4) (natural protein) MAAHQMDSITYSNNVTQQYIQPQSLQDISAVEDEIQNKIEAARQESKQLHAQINKAKHKIQDASLFQMANKVTSLTKNKINLKPNIVLKGHNNKISDFRWSRDSKRILSASQDGFMLIWDSASGLKQNAIPLDSQWVLSCAISPSSTLVASAGLNNNCTIYRVSKENRVAQNVASIFKGHTCYISDIEFTDNAHILTASGDMTCALWDIPKAKRVREYSDHLGDVLALAIPEEPNSENSSNTFASCGSDGYTYIWDSRSPSAVQSFYVNDSDINALRFFKDGMSIVAGSDNGAINMYDLRSDCSIATFSLFRGYEERTPTPTYMAANMEYNTAQSPQTLKSTSSSYLDNQGVVSLDFSASGRLMYSCYTDIGCVVWDVLKGEIVGKLEGHGGRVTGVRSSPDGLAVCTGSWDSTMKIWSPGYQ
